Test results published in patent publication US20070212347A1 (published 2007).

Legend:
[1] = biological target: GST-p53 construct (Res. 73-390) [GST: P08515]; experiment: in vitro binding, ^35S-T-antigen probe on bead-immobilized GST-p53
[2] = biological target: T1, ^35S-PKD2 probe (C-terminal region of polycystin-2, Res. 657-968) (UniProt Q13563 657-968, ^35S-labeled (in vitro translation)); experiment: in vitro binding, autoradiogram (FIG. 12C)
T1 construct: range 657-968; In vitro translated in the same manner as the Ig probes; also called polycystin-2 probe; PKD2 gene product
T1 sequence (looked up): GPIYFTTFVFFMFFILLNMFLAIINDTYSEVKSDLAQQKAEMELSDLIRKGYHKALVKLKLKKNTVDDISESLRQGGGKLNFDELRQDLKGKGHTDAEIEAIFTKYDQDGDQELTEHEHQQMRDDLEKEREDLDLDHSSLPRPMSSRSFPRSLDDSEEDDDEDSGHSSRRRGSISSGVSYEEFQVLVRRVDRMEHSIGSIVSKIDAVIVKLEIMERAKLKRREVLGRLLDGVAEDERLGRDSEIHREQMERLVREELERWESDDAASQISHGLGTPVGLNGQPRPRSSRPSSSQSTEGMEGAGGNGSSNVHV

[3] = biological target: T2, GST-Ig^b fusion protein (polycystin-1 Ig-like domains VI-X, amino acids 1205-1625, fused to GST) (human, UniProt P98161 1205-1625); experiment: in vitro binding, ^35S in vitro translated probe on bead-immobilized GST fusion
T2 construct: used soluble in the MDCK adhesion assays; not shown: glutathione S-transferase carrier encoded by the pGEX vector (Pharmacia), N-terminal fusion partner; linker residues not
T2 sequence: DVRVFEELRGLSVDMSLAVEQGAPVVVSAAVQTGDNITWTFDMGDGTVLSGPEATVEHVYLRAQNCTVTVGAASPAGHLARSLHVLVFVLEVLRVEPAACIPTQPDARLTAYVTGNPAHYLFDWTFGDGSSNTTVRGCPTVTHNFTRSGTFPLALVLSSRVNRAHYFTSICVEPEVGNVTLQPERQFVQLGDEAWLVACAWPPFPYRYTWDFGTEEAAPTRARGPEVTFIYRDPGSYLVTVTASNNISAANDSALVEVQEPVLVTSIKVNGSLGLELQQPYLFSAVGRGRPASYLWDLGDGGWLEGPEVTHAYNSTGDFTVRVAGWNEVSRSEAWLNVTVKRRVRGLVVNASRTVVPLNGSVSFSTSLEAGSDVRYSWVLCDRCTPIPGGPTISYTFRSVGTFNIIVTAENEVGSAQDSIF

[4] = biological target: Ig^b and Ig^c, as partners of Ig^b in the 'Ig^b-Ig^b, Ig^b-Ig^c combinations'; experiment: in vitro binding, ^35S in vitro translated probe on bead-immobilized GST fusion, PhosphorImager

Chain of GST-p53 construct (Res. 73-390) [GST: P08515] (P08515 whole entry): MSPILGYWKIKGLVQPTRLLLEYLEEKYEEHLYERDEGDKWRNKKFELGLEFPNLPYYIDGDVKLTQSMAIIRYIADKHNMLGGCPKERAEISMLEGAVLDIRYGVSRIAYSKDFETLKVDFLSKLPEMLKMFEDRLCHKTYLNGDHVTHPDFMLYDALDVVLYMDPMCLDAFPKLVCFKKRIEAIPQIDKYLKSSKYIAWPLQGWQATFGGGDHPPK

## ^35S-T-antigen probe (SV40 large T-antigen, res. 87-708) (from UniProt P03070 87-708)
[1]
  bound fraction (percentage of input probe): 45%

B1: MBP-PKD1 fusion protein (C-terminal region of polycystin-1, Res. 4077-4302, fused to MBP) (other, not shown: large carriers)
chain: ESWHLSPLLCVGLWALRLWGALRLGAVILRWRYHALRGELYRPAWEPQDYEMVELFLRRLRLWMGLSKVKEFRHKVRFEGMEPLPSRSSRGSKVSPDVPPPSAGSDASHPSTSSSQLDGLSVSLGRLGTRCEPEPSRLQAVFEALLTQFDRLNQATEDVYQLEQQLHSLQGRRSSRAPAGSSRGPSPGLRPALPSRLARASRGVDLATGPSRTPLRAKNKVHPSST
notes: Immobilized on amylose resin; also called polycystin-1 c-terminal fusion protein
[2]
  binding result: binds

B2: ^35S-Ig^b in vitro translated probe (polycystin-1 Ig-like domains VI-X) (other)
chain: DVRVFEELRGLSVDMSLAVEQGAPVVVSAAVQTGDNITWTFDMGDGTVLSGPEATVEHVYLRAQNCTVTVGAASPAGHLARSLHVLVFVLEVLRVEPAACIPTQPDARLTAYVTGNPAHYLFDWTFGDGSSNTTVRGCPTVTHNFTRSGTFPLALVLSSRVNRAHYFTSICVEPEVGNVTLQPERQFVQLGDEAWLVACAWPPFPYRYTWDFGTEEAAPTRARGPEVTFIYRDPGSYLVTVTASNNISAANDSALVEVQEPVLVTSIKVNGSLGLELQQPYLFSAVGRGRPASYLWDLGDGGWLEGPEVTHAYNSTGDFTVRVAGWNEVSRSEAWLNVTVKRRVRGLVVNASRTVVPLNGSVSFSTSLEAGSDVRYSWVLCDRCTPIPGGPTISYTFRSVGTFNIIVTAENEVGSAQDSIF
modifications: ^35S-labeled (in vitro translation)
notes: Translated in reticulocyte lysate without the GST portion, from an AUG in a Kozak context placed upstream of the insert
[3]
  binding result: binds
[4]
  bound fraction (percentage of input probe): 25 to 45%
